Data on one molecule can be found in publication PMC9293779, “Elucidation of binding preferences of YEATS domains to site-specific acetylated nucleosome core particles” (The Journal of Biological Chemistry, 2022).

What all share (assay): ITC
For experiment [1], the target named is T1, H3K14ac (1–19) peptide (Homo sapiens).
T1 chain: ARTKQTARKSTGGKAPRKQ
As to conditions: domain or fragment; chains chain; modification not given; acetyl-Lys14 (mature histone numbering; entry K15); terminal caps or added residues not given.

Experiment [2] addresses Unmodified H3 (1–19) (Homo sapiens). As to conditions: domain or fragment; chains chain; modification not given.
Experiment [3] deals with T2, H3K4ac (1–19) peptide (Homo sapiens).
T2 chain: ARTKQTARKSTGGKAPRKQ
As to conditions: domain or fragment; chains chain; modification not given; acetyl-Lys4 (mature histone numbering; entry K5); terminal caps or added residues not given.

B1: AF9-YEATS domain (residues 1–138) for X-ray analysis and ITC, P42568 1-138 (protein)
chain: MASSCAVQVKLELGHRAQVRKKPTVEGFTHDWMVFVRGPEHSNIQHFVEKVVFHLHESFPRPKRVCKDPPYKVEESGYAGFILPIEVYFKNKEEPRKVRFDYDLFLHLEGHPPVNHLRCEKLTFNNPTEDFRRKLLKA
For B1, the Kd in experiment [1] was more than 1000 µM; in experiment [2], more than 1000 µM; in experiment [3], 320 µM.
